Test results: patent US20120207760A1

B1: TCN-555 (5246_L16) (antibody, V domains shown)
VH: QVQLVQSGAEVKRPGSSVKVSCTASGGIFRKNAISWVRQAPGQGLEWMGGIIAVFNTANYAQKFQNRVKITADESGNTAYMELSSLTSDDTAVYYCASHPKYFYGSGSYPDFWGQGTLVTVSS
VL: QSALTQPRSVSGSPGQSITISCTGGSSDIGASNSVSWYQQHPGKAPKLVIFDVTERPSGVPHRFSGSKSGNTASLTVSGLQPDDEADYFCCAYGGKYLVVFGGGTKVTVL
B2: TCN-531 (5091_H13) (antibody, V domains shown)
VH: EVQLVESGGDLVQPGRSLKLSCTGSGFTFGDYGVTWVRQAPGKGLEWVGFIRTRPWGGTADTAASVKGRFTISRDDSKSLAYLQMNSLKTEDTAVYYCCRDAPPNVEVASMTNWYFDLWGRGTLVTVSS
VL: DIQLTQSPSSLSASVGDRVTITCRASQGILNCLAWYQQKPGKVPNLLMYAASTLQSGVPSRFSGSGFGTDFTLTISSLQPEDVATYYCQTYGGVSTFGGGTKVEIR

Assays:
Conditions in all cases: remark: other sources report otherwise
[1] = molecular target: recombinant homotrimeric HA, A/California/4/09 H1N1 (Influenza A virus A/California/4/09 (H1N1)); test: trimeric HA microarray, transfection set 5
[2] = molecular target: recombinant homotrimeric HA, A/Indonesia/5/05 H5N1 (Influenza A virus A/Indonesia/5/05 (H5N1)); test: trimeric HA microarray, transfection set 5
[3] = molecular target: T1, recombinant homotrimeric HA, A/Japan/305/57 H2N2 (Influenza A virus A/Japan/305/57 (H2N2)); test: trimeric HA microarray, transfection set 5
[4] = molecular target: recombinant homotrimeric HA, A/Solomon Islands/3/06 H1N1 (Influenza A virus A/Solomon Islands/3/06 (H1N1)); test: trimeric HA microarray, transfection set 5
[5] = molecular target: recombinant homotrimeric HA, A/South Carolina/1/18 H1N1 (Influenza A virus A/South Carolina/1/18 (H1N1)); test: trimeric HA microarray, transfection set 5
[6] = molecular target: T2, recombinant homotrimeric HA, A/Wisconsin/67/05 H3N2 (Influenza A virus A/Wisconsin/67/05 (H3N2)); test: trimeric HA microarray, transfection set 5
[7] = molecular target: T3, recombinant homotrimeric HA, A/swine/Ontario/01911-2/99 H4N6 (Influenza A virus A/swine/Ontario/01911-2/99 (H4N6)); test: trimeric HA microarray, transfection set 5
[8] = molecular target: recombinant soluble homotrimeric HA of A/swine/Ontario/01911-2/99 (H4N6) (Influenza A virus A/swine/Ontario/01911-2/99 (H4N6)); test: microarray, BCC supernatant IgG, trimeric HA
[9] = molecular target: recombinant homotrimeric HA, A/Egypt/3300-NAMRU3/08 H5N1 (Influenza A virus A/Egypt/3300-NAMRU3/08 (H5N1)); test: trimeric HA microarray, transfection set 3
[10] = molecular target: T1, recombinant homotrimeric HA, …; test: trimeric HA microarray, transfection set 3
[11] = molecular target: recombinant homotrimeric HA, A/Vietnam/1203/04 H5N1 (Influenza A virus A/Vietnam/1203/04 (H5N1)); test: trimeric HA microarray, transfection set 3
[12] = molecular target: T2, recombinant homotrimeric HA, …; test: trimeric HA microarray, transfection set 3
[13] = molecular target: recombinant homotrimeric HA, A/common magpie/Hong Kong/5052/07 H5N1 (Influenza A virus A/common magpie/Hong Kong/5052/07 (H5N1)); test: trimeric HA microarray, transfection set 3
[14] = molecular target: recombinant homotrimeric HA, A/duck/Yangzhou/02/05 H8N4 (Influenza A virus A/duck/Yangzhou/02/2005 (H8N4)); test: trimeric HA microarray, transfection set 3
[15] = molecular target: T3, recombinant homotrimeric HA, …; test: trimeric HA microarray, transfection set 3
[16] = molecular target: recombinant soluble homotrimeric HA of A/California/4/09 (H1N1) (Influenza A virus A/California/4/09 (H1N1)); test: microarray, BCC supernatant IgG, trimeric HA
[17] = molecular target: recombinant soluble homotrimeric HA of A/Japan/305/57 (H2N2) (Influenza A virus A/Japan/305/57 (H2N2)); test: microarray, BCC supernatant IgG, trimeric HA
[18] = molecular target: recombinant soluble homotrimeric HA of A/chicken/Vietnam/NCVD-016/08 (H5N1) (Influenza A virus A/chicken/Vietnam/NCVD-016/08 (H5N1)); test: microarray, BCC supernatant IgG, trimeric HA

| Binder | Trimeric HA Binding RLU [1] | Trimeric HA Binding RLU [2] | Trimeric HA Binding RLU [3] | Trimeric HA Binding RLU [4] | Trimeric HA Binding RLU [5] | Trimeric HA Binding RLU [6] | Trimeric HA Binding RLU [7] | Trimeric HA Binding: RLU [8] | Trimeric HA Binding RLU [9] | Trimeric HA Binding RLU [10] | Trimeric HA Binding RLU [11] | Trimeric HA Binding RLU [12] | Trimeric HA Binding RLU [13] | Trimeric HA Binding RLU [14] | Trimeric HA Binding RLU [15] | Trimeric HA Binding: RLU [16] | Trimeric HA Binding: RLU [17] | Trimeric HA Binding: RLU [18] |
| --- | --- | --- | --- | --- | --- | --- | --- | --- | --- | --- | --- | --- | --- | --- | --- | --- | --- | --- |
| B1 | 20200 RLU | 33900 RLU | 16700 RLU | 44600 RLU | 48000 RLU | 14700 RLU | 4520 RLU | 1950 RLU | – | – | – | – | – | – | – | – | – | – |
| B2 | – | – | – | – | – | – | – | – | 363 RLU | 489 RLU | 2410 RLU | 4160 RLU | 37 RLU | 3220 RLU | 296 RLU | 22200 RLU | 410 RLU | 20800 RLU |
